13 molecules from patent US20240002516A1 (4B TECHNOLOGIES SUZHOU, published 2024) can be followed below.

Experiment [1] deals with T1, extracellular domain (ECD) of human TrkA protein, N-terminal flag tag and C-terminal His tag (PHA) (human, UniProt P04629 33-423).
T1 construct: Made in 293-F cells and purified by IMAC; also called TrkA ECD protein; TrkA (ECD); not shown: flag tag at the N-terminus (after the signal peptide); His tag at the C-terminus
Nature of the experiment: BLI (ForteBio).

For experiment [2], the target named is T1, extracellular domain (ECD) of human …. Nature of the experiment: affinity after affinity maturation; method not stated in Example 5.
In experiment [3] the target is human TrkA on CellSensor TrkA-NFAT-bla CHO-K1 cells (human, UniProt P04629 33-796). Briefly: cell-based or functional assay.
For experiment [4], the target named is T1, extracellular domain (ECD) of human …. Briefly: SPR (BIAcore T200), antibody on protein G chip, PHA 0.625-20 nM injected. On the procedure:
The binding kinetics and affinities of the humanized antibodies were determined using a BIAcoreT200™ SPR system. Approximately 30 RU of the humanized antibody was immobilized on a protein G sensor chip and serial 2-fold dilutions of the PHA (0.625-20 nM) in 1×HBS-EP+ buffer were injected over the antibody-bound surface at a flow rate of 30 μl/min.
(In general: SPR reads the build-up and loss of mass on a sensor chip optically.)

Experiment [5] has the same target. Nature of the experiment: BLI (Octet Red384), as in Example 4. How it is done:
The bio-layer interferometry (BLI) method was used to determine the affinities of the antibodies, employing Octet Red384. Briefly, anti-human Fc-coated biosensor AHQ tips (ForteBio) were put into PBS with 0.1% w/v bovine serum albumin and 0.05% Tween-20 for a minimum of 10 min in the pre-wetting plate. The purified antibodies (100 nM in PBS with 0.1% bovine serum albumin and 0.05% Tween-20 (assay buffer)) were captured on AHQ biosensors (ForteBio) at a level of about 1 nm. The loaded biosensors were washed with an assay buffer to remove any unbound protein. Then, the association rates, dissociation rates and response were measured, using an antigen of 100 nM (in PBS with 0.1% bovine serum albumin and 0.05% Tween-20).
Two rounds of humanizations were further performed. […] In the second round, many other variants were further constructed (including several mutations in the CDR sequences). Quickchange based site-directed mutagenesis or overlap PCR were performed to create expression plasmid of new versions of 2nd round humanized antibodies. All recombinant antibodies were expressed and purified as described in Example 1, then measured antigen binding affinity using BLI technology with the Octet Red384 instrument as mentioned above. To compare the functional activity of humanized antibodies with chimeric antibodies, NFAT assay was also performed.
A general note: In BLI a coated tip is dipped into the sample, and binding shifts an interference pattern.

human TrkA on CellSensor TrkA-NFAT-bla CHO-K1 cells, sequence (P04629 33-796 limits assumed, form in doubt): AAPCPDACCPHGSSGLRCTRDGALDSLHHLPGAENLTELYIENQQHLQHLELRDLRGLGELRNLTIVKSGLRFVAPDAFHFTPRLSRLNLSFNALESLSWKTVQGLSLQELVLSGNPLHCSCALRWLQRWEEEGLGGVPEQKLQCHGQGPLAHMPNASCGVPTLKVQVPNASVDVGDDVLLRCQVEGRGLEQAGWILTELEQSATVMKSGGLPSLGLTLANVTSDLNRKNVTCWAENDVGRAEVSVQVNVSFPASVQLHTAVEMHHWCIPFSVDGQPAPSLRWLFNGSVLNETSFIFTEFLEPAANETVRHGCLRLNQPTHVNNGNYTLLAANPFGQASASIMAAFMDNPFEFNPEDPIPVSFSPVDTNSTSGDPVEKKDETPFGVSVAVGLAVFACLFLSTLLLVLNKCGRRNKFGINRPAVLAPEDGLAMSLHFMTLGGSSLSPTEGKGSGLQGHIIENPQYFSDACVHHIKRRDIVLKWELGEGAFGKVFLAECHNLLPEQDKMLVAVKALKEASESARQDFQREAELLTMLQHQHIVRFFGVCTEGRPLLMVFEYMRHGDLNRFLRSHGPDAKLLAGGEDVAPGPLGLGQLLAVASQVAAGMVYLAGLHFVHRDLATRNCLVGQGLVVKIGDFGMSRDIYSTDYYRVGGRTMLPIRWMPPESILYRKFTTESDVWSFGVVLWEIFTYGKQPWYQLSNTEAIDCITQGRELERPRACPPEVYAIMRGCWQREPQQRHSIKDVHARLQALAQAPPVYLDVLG
T1 sequence (P04629 33-423): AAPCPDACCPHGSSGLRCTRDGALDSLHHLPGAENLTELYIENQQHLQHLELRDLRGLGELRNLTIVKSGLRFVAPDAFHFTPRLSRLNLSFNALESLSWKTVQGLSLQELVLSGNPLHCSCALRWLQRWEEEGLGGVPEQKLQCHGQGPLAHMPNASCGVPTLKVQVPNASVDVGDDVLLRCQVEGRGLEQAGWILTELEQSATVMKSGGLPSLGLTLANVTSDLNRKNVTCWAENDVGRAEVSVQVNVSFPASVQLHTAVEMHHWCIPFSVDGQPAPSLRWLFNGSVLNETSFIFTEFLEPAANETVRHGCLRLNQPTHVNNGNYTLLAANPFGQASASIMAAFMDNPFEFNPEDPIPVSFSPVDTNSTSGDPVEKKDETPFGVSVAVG

B1: PHD29 (antibody, V domains shown)
VH: QVQLVQSGAEVKKPGASVKVSCKASGYTFTTYWMHWVRQAPGQGLEWIGTIYPGNSDTSFAQKFQGRVTLTRDTSTSTAYMELSSLRSEDTAVYYCTRFYFEDWYFDVWGQGTTVTVSS
VL: DIQMTQSPSSLSASVGDRVTITCRASSSISWLYWFQQKPGKAPKPLIYYTSSLGSGVPSRFSGSGSGTDYTLTISSLQPEDFATYYCQQWHSYPPTFGGGTKVEIK
Usually Kd stands for a measure of binding affinity in units of concentration. Read a high Kd as a looser complex. A word on the koff: it is a measure of how fast the partners let go of each other. A low value points to slow dissociation. Usually kon stands for the second-order rate constant of association. Higher therefore signals fast association. As to B1, in experiment [1], the Kd was 11.9 nM, the koff was 0.00441 s⁻¹ and the kon worked out at 371000 M⁻¹ s⁻¹.

B2: PHD49-05 (antibody, V domains shown)
VH: QVQLVQSGAEVKKPGSSVKVSCKASGYTFSSHWIQWVRQAPGQGLEWIGAIYPGDDDTIYTQKFQGRATITTDKSTSTAYMELSSLRSEDTAVYYCARNYDYQAWFAYWGQGTLVTVSS
VL: DIQMTQSPSSLSASVGDRVTITCRASSSVSYLYWYQQKPGKAPKPLIYLTSSLASGVPSRFSGSGSGTDYTLTISSLQPEDFATYYCQQWSSNPLTFGQGTKLEIK
For B2, in experiment [2], the Kd came out at 0.583 nM, the koff worked out at 0.000174 s⁻¹ and the kon turned out to be 299000 M⁻¹ s⁻¹. For the same molecule, in experiment [3], the “NFAT IC50” value turned out to be 170 nM.

B3: PHD49 (antibody, V domains shown)
VH: QVQLVQSGAEVKKPGSSVKVSCKASGFTFSSYWIQWVRQAPGQGLEWIGAIYTGDGDTIYTQKFQGRATITTDESTSTAYMELSSLRSEDTAVYYCARNYHYQAWFDYWGQGTLVTVSS
VL: DIQMTQSPSSLSASVGDRVTITCRASSSVSYLYWYQQKPGKAPKPLIYLTSSLASGVPSRFSGSGSGTDYTLTISSLQPEDFATYYCQQWSSNPLTFGQGTKLEIK
With B3, in experiment [2], the affinity, expressed as Kd, was 0.174 nM; the koff amounted to 5.21e-05 s⁻¹; the kon was 300000 M⁻¹ s⁻¹. Also, in experiment [3], the “NFAT IC50” value is 266 nM.

B4: PHD28 (antibody, V domains shown)
VH: QVQLVQSGAEVKKPGASVKVSCKASGYTFTTYWMHWVRQAPGQGLEWIGTIYPGNSDTSLAQKFQGRVTLTRDTSTSTAYMELSSLRSEDTAVYYCTRFYFEDWYFDVWGQGTTVTVSS
VL: DIQMTQSPSSLSASVGDRVTITCRASSSISWLYWFQQKPGKAPKPLIYYTSSLGSGVPSRFSGSGSGTDYTLTISSLQPEDFATYYCQQWHSYPPTFGGGTKVEIK
In experiment [1], B4 came in with a Kd of 18.4 nM, a koff of 0.00764 s⁻¹ and a kon of 415000 M⁻¹ s⁻¹.

B5: PHD49-21 (antibody, V domains shown)
VH: QVQLVQSGAEVKKPGSSVKVSCKASGFTFSSYWIQWVRQAPGQGLEWIGAIYTGDGDTIYTQKFQGRATITTDESTSTAYMELSSLRSEDTAVYYCARNYHYQAWFDYWGQGTLVTVSS
VL: DIQMTQSPSSLSASVGDRVTITCRASSSVSYLYWYQQKPGKAPKPLIYLTSDLASGVPSRFSGSGSGTDYTLTISSLQPEDFATYYCQQWSSNPLTFGQGTKLEIK
Consider B5, for which, in experiment [2], the Kd worked out at 0.259 nM, the koff amounted to 9.51e-05 s⁻¹ and the kon was found to be 367000 M⁻¹ s⁻¹. In addition, the “NFAT IC50” value in experiment [3] was 124 nM.

B6: PHD48 (antibody, V domains shown)
VH: QVQLVQSGAEVKKPGASVKVSCKASGYTFTTYWMHWVRQAPGQGLEWIGTIYPGNSDSSNAQKFQGRVTLTRDTSTSTAYMELSSLRSEDTAVYYCTRFYYEDWYFDVWGQGTTVTVSS
VL: DIQMTQSPSSLSASVGDRVTITCRASSSVSYLYWFQQKPGKAPKPLIYRTSNLASGVPSRFSGSGSGTDYTLTISSLQPEDFATYYCQQYHSYPPTFGGGTKVEIK
notes: also called full-length PHD48 antibody
Turning to B6, the “NFAT IC50” value in experiment [3] came out at 66.5 nM. In experiment [4], the Kd stood at 1.87 nM, the koff worked out at 0.000413 s⁻¹ and the kon came to 220000 M⁻¹ s⁻¹.

B7: PHD26 (antibody, V domains shown)
VH: QVQLVQSGAEVKKPGASVKVSCKASGYTFTEYWMHWVRQAPGQGLEWIGTIYPGNSDTSYAQKFQGRVTLTRDTSTSTAYMELSSLRSEDTAVYYCTRFYFEDWYFDVWGQGTTVTVSS
VL: DIQMTQSPSSLSASVGDRVTITCRASSSISWLYWFQQKPGKAPKPLIYYTSSLGSGVPSRFSGSGSGTDYTLTISSLQPEDFATYYCQQWHSYPPTFGGGTKVEIK
For the molecule B7, in experiment [1], the Kd stood at 16.6 nM, the koff amounted to 0.00811 s⁻¹ and the kon is 490000 M⁻¹ s⁻¹.

B8: PHD48-08 (antibody, IgG4, V domains shown)
VH: QVQLVQSGAEVKKPGASVKVSCKASGYTFTTYWMHWVRQAPGQGLEWIGTIYPGNSDSSNAQKFQGRVTLTADTSTSTAYMELSSLRSEDTAVYYCTRFYYEDWYFDVWGQGTTVTVSS
VL: DIQMTQSPSSLSASVGDRVTITCRASSSVSYLYWFQQKPGKAPKPLIYRTSNLASGVPSRFSGSGSGTDYTLTISSLQPEDFATYYCQQYHSYPPTFGGGTKVEIK
In experiment [5], B8 showed a Kd of 1.38 nM, a koff of 0.000331 s⁻¹ and an on-rate (kon) of 240000 M⁻¹ s⁻¹. Further, the “NFAT IC50” value in experiment [3] is 188 nM. Besides, in experiment [4], the Kd came out at 2.77 nM, the koff is 0.00045 s⁻¹ and the kon came out at 163000 M⁻¹ s⁻¹.

B9: PHD24 (antibody, V domains shown)
VH: QVQLVQSGAEVKKPGASVKVSCKASGYTFTTYWMHWVRQAPGQGLEWIGTIYPGNSDTSLAQKFQGRVTLTRDTSTSTAYMELSSLRSEDTAVYYCTRFYFEDWYFDVWGQGTTVTVSS
VL: DIQMTQSPSSLSASVGDRVTITCRASSSISWLYWFQQKPGKAPKPLIYYTSTLGSGVPSRFSGSGSGTDYTLTISSLQPEDFATYYCQQWHSYPPTFGGGTKVEIK
In experiment [1], B9 gave a Kd of 11.6 nM, a koff of 0.00518 s⁻¹ and a kon of 446000 M⁻¹ s⁻¹.

B10: PHD30 (antibody, V domains shown)
VH: QVQLVQSGAEVKKPGASVKVSCKASGYTFTEYWMHWVRQAPGQGLEWIGTIYPGNSDSSFAQKFQGRVTLTRDTSTSTAYMELSSLRSEDTAVYYCTRFYYEDWYFDVWGQGTTVTVSS
VL: DIQMTQSPSSLSASVGDRVTITCRASSSISYLYWFQQKPGKAPKPLIYRTSSLGSGVPSRFSGSGSGTDYTLTISSLQPEDFATYYCQQYHSYPPTFGGGTKVEIK
Take B10: in experiment [1], the affinity, expressed as Kd, was 7.23 nM; the off-rate (koff) is 0.00351 s⁻¹; the kon is 486000 M⁻¹ s⁻¹.

B11: PHD25 (antibody, V domains shown)
VH: QVQLVQSGAEVKKPGASVKVSCKASGYTFTTYWMHWVRQAPGQGLEWIGTIYPGNSDTSFAQKFQGRVTLTRDTSTSTAYMELSSLRSEDTAVYYCTRFYFEDWYFDVWGQGTTVTVSS
VL: DIQMTQSPSSLSASVGDRVTITCRASSSISWLYWFQQKPGKAPKPLIYYTSTLGSGVPSRFSGSGSGTDYTLTISSLQPEDFATYYCQQWHSYPPTFGGGTKVEIK
In experiment [1], B11 displayed a Kd of 12.3 nM, an off-rate constant (koff) of 0.00471 s⁻¹ and a kon of 383000 M⁻¹ s⁻¹.

B12: PHD49-11 (antibody, IgG4, V domains shown)
VH: QVQLVQSGAEVKKPGSSVKVSCKASGYTFSSYWMQWVRQAPGQGLEWIGAIYPGDDDTIYTQKFKGRATITADKSTSTAYMELSSLRSEDTAVYYCARNYDYQAWFAYWGQGTLVTVSS
VL: DIQMTQSPSSLSASVGDRVTITCRASSSVSYLYWYQQKPGKAPKPWIYLTSNLASGVPSRFSGSGSGTDYTLTISSLQPEDFATYYCQQWSSNPLTFGQGTKLEIK
Turning to B12, in experiment [5], binding was put at a Kd of 10.6 nM, the koff worked out at 0.00207 s⁻¹ and the kon worked out at 196000 M⁻¹ s⁻¹. In experiment [3], the “NFAT IC50” value is 269 nM.

B13: PHD22 (antibody, V domains shown)
VH: QVQLVQSGAEVKKPGASVKVSCKASGYTFTEYWMHWVRQAPGQGLEWIGTIYPGNSDTSYAQKFQGRVTLTRDTSTSTAYMELSSLRSEDTAVYYCTRFYFEDWYFDVWGQGTTVTVSS
VL: DIQMTQSPSSLSASVGDRVTITCRASSSISWLYWFQQKPGKAPKPLIYYTSTLGSGVPSRFSGSGSGTDYTLTISSLQPEDFATYYCQQWHSYPPTFGGGTKVEIK
With B13, in experiment [1], the dissociation constant (Kd) was 23.8 nM, the off-rate (koff) turned out to be 0.0113 s⁻¹ and the kon came out at 473000 M⁻¹ s⁻¹.
